From US20090087417A1, “METHODS FOR PROMOTING DOPAMINERGIC NEURONAL DEVELOPMENT BY USING NG4A-SUBFAMILY AND WNT-LIGANDS” (priority 2002, published 2009)

Test system: E14.5 VM precursor cultures
Assay: Real time RT-PCR of gene expression in Wnt-treated VM precursor cultures
Assay type: cell-based, rat
Conditions: 3 days in vitro
Description: Total RNA was isolated from confluent T1A astrocyte cultures derived from ventral mesencephalon, dorsal mesencephalon and cortex of P1 rats and from tissue dissected from E10.5, E11.5, E13.5, E15.5 and P1 ventral and dorsal mesencephalon, and E14, E16, E18 and P1 cortex, using RNeasy extraction kit (Qiagen, Hilden, Germany). Total RNA was also extracted from E14.5 VM precursor cultures (7.5 million cells in 100 mm dishes) treated with wnts for 3 days in vitro (triplicate determination). For the reverse transcription, […] of total RNA was initially treated with 1 unit RQ1 Rnase-free DNAse (Promega, Madison, USA) for 40 minutes. The DNAse was inactivated by the addition of 1 μl of EDTA 0.02M and incubation at 65° C. for 10 minutes. 0.5 μg random primers (Life Technologies, Grand Island, N.Y., USA) were then added, and the mixture was incubated at 70° C. for 10 minutes. Each sample was then equally divided in two tubes, a cDNA reaction tube and a negative control tube. A master mix containing 1× First-Strand Buffer (Life Technologies, Grand Island, N.Y., USA), 0.01M DTT (Life Technologies, Grand Island, N.Y., USA) and 0.5 mM dNTPS (Promega, Madison, USA) was then added to both cDNA and RT− tubes and incubated at 25° C. for 10 minutes, followed by a 2 minutes incubation at 42° C. 200 units of Superscript II reverse transcriptase (Life Technologies, Grand Island, N.Y., USA) were then added only to the cDNA tubes and all sample were incubated at 42° C. for 50 minutes. Superscript II was inactivated with an incubation for 10 minutes at 70° C. Both cDNA and RT− were then diluted 10 times, for further analysis.
Real-time PCR was performed in triplicates, with 1 μl 1:10 diluted cDNA and RT−, in a total volume of 25 μl. Each PCR reaction consisted on 1×PCR buffer (Life Technologies, Grand Island, N.Y., USA), 3 mM MgCl2 (Life Technologies, Grand Island, N.Y., USA), 0.2 mM dNTPs (Promega, Madison, USA), 0.3 μM each of the forward and reverse primers, 1 unit Platinum Taq DNA polymerase (Life Technologies, Grand Island, N.Y., USA) and 1×SYBR Green (Molecular Probes, Leiden, The Netherlands). The PCR was performed at 94° C. for 2 min and then for 35-40 cycles at 94° C. for 30 s, at 60° C. for 30-45 s, at 72° C. for 45-60 s and at 80° C. for 15 s (for SYBR Green detection) on the ABI PRISM 5700 Detection System (PE Applied Biosystems, Foster City, Calif., USA). Other annealing temperatures included 54° C. for Wnt 5a, 57° C. for p27, 62° C. for Cyclin D1, 61° C. for Cyclin D2 and 65° C. for p57. A melting curve was obtained for each PCR product after each run, in order to confirm that the SYBR Green signal corresponded to a unique and specific amplicon. The specificity of the PCR product was verified by sequencing.
Standard curves were generated in every 96-wells plate real time PCR run, using serial 3-fold dilutions of a reverse transcribed RNA or plasmid containing the sequence of interest for every probe. The resulting standard curve plots were then used to convert the Cts (number of PCR cycles needed for a given template to be amplified to an established fluorescence threshold) into arbitrary quantities of initial template of a given sample.
The expression levels were obtained by subtracting the RT− value for each sample from the corresponding RT+ value and then dividing that number by the value of the house-keeping gene, 18S, obtained for every sample in parallel assays.
Statistical analysis of the results was performed by one way ANOVA. Fisher's protected least significant difference was used post hoc to identify specific points at which the different developmental stages differed from the earliest, only when significant interactions occurred. Significance for all tests was assumed at the level of p<0.05 (*p<0.05; **p<0.001; ***p<0.000).

B1: Wnt-5a: Partially purified conditioned media from stable fibroblast cell line engineered to secrete Wnt-5a ligand (protein)
chain: IIGAQPLCSQLAGLSQGQKKLCHLYQDHMQYIGEGAKTGIKECQYQFRHRRWNCSTVDNTSVFGRVMQIGSRETAFTYAVSAAGVVNAMSRACREGELSTCGCSRAARPKDLPRDWLWGGCGDNIDYGYRFAKEFVDARERERIHAKGSYESARILMNLHNNEAGRRTVYNLADVACKCHGVSGSCSLKTCWLQLADFRKVGDALKEKYDSAAAMRLNSRGKLVQVNSRFNSPTTQDLVYIDPSPDYCVRNESTGSLGTQGRLCNKTSEGMDGCELMCCGRGYDQFKTVQTERCHCKFHWCCYVKCKKCTEIVDQFVCK
modifications: left off: small tags and cut ends
- Ptx3 mRNA: increased
- c-ret expression: upregulated
- cyclin D1 mRNA: not
- cyclin D2 mRNA: not affected
- cyclin D3 mRNA: not
- expression of GFR[…]1: maintained
- expression of NCAM: maintained
- p21 mRNA expression: neither affected
- p57 mRNA: not

B2: Wnt-7a: Partially purified / conditioned media from Wnt-7a overexpressing fibroblast cell line (protein, UniProt P24383 32-349, looked up)
Protein Wnt-7a: LGASIICNKIPGLAPRQRAICQSRPDAIIVIGEGSQMGLDECQFQFRNGRWNCSALGERTVFGKELKVGSREAAFTYAIIAAGVAHAITAACTQGNLSDCGCDKEKQGQYHRDEGWKWGGCSADIRYGIGFAKVFVDAREIKQNARTLMNLHNNEAGRKILEENMKLECKCHGVSGSCTTKTCWTTLPQFRELGYVLKDKYNEAVHVEPVRASRNKRPTFLKIKKPLSYRKPMDTDLVYIEKSPNYCEEDPVTGSVGTQGRACNKTAPQASGCDLMCCGRGYNTHQYARVWQCNCKFHWCCYVKCNTCSERTEMYTCK
modifications: conditioned medium
notes: Partially purified / conditioned media from Wnt-7a overexpressing fibroblast cell line
- cyclin D1 mRNA: increased
- cyclin D2 mRNA: not regulated
- cyclin D3 mRNA: No regulation
- p27 mRNA: decreased
- p57 mRNA: decreased

B3: Wnt-1: Partially purified conditioned media from stable fibroblast cell line engineered to secrete Wnt-1 ligand (protein)
chain: ANSSGRWWGIVNIASSTNLLTDSKSLQLVLEPSLQLLSRKQRRLIRQNPGILHSVSGGLQSAVRECKWQFRNRRWNCPTAPGPHLFGKIVNRGCRETAFIFAITSAGVTHSVARSCSEGSIESCTCDYRRRGPGGPDWHWGGCSDNIDFGRLFGREFVDSGEKGRDLRFLMNLHNNEAGRTTVFSEMRQECKCHGMSGSCTVRTCWMRLPTLRAVGDVLRDRFDGASRVLYGNRGSNRASRAELLRLEPEDPAHKPPSPHDLVYFEKSPNFCTYSGRLGTAGTAGRACNSSSPALDGCELLCCGRGHRTRTQRVTERCNCTFHWCCHVSCRNCTHTRVLHECL
modifications: left off: small tags and cut ends
- c-ret expression: not
- cyclin D1 mRNA: upregulated
- cyclin D2 mRNA: not affected
- cyclin D3 mRNA: upregulated
- expression of GFR[…]1: repressed
- expression of NCAM: repressed
- p21 mRNA expression: neither affected
- p27 mRNA: downregulated
- p57 mRNA: downregulated

B4: Wnt-2: Partially purified / conditioned media from Wnt-2 overexpressing fibroblast cell line (protein, UniProt P21552 26-360, looked up)
Protein Wnt-2: SWWYMRATGGSSRVMCDNVPGLVSRQRQLCHRHPDVMRAIGLGVAEWTAECQHQFRQHRWNCNTLDRDHSLFGRVLLRSSRESAFVYAISSAGVVFAITRACSQGELKSCSCDPKKKGSAKDSKGTFDWGGCSDNIDYGIKFARAFVDAKERKGKDARALMNLHNNRAGRKAVKRFLKQECKCHGVSGSCTLRTCWLAMADFRKTGDYLWRKYNGAIQVVMNQDGTGFTVANKRFKKPTKNDLVYFENSPDYCIRDREAGSLGTAGRVCNLTSRGMDSCEVMCCGRGYDTSHVTRMTKCECKFHWCCAVRCQDCLEALDVHTCKAPKSADWATPT
modifications: conditioned medium
notes: Partially purified / conditioned media from Wnt-2 overexpressing fibroblast cell line
- cyclin D1 mRNA: slight upregulation
- cyclin D2 mRNA: increases
- cyclin D3 mRNA: No regulation
- p27 mRNA: increases
- p57 mRNA: increases
